Experiment [1] concerns the target Ub(T): S. pombe Ub residues 1–74 extended with Gly–PSAN (Ub-PSAN), as cyanomethyldithioacetal in the complexes (S. pombe) (UniProt P0CG72).
In experiment [2] the target is S. pombe Ubc4(C21S/C107S) (S. pombe) (UniProt P46595).
S. pombe Ubc4(C21S/C107S) (S. pombe), sequence (P46595 whole entry C21S/C107S): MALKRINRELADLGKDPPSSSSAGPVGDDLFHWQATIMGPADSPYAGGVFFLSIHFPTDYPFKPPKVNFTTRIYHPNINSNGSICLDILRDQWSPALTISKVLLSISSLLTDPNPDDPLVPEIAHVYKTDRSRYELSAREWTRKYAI

UniProt P0CG72, sequence (P0CG72 1-74, one chain of several): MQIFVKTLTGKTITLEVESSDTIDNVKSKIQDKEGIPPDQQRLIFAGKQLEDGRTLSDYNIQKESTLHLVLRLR

B1: S. pombe Pub2^HECT (295–671) F640A (domain or fragment)
chain: DEYQRKIAYMYDRPEMAVNDAQLQLKVSRATTFEDAYDIISKLSVSDMKKKLLIRFRNEDGLDYGGVSREFFYILSHAIFNPGYSLFEYATDDNYGLQISPLSSVNPDFRSYFRFVGRVMGLAIYHRRYLDVQFVLPFYKRILQKPLCLEDVKDVDEVYYESLKWIKNNDVDESLCLNFSVEENRFGESVTVDLIPNGRNIAVNNQNKMNYLKALTEHKLVTSTEEQFNALKGGLNELIPDSVLQIFNENELDTLLNGKRDIDVQDWKRFTDYRSYTETDDIVIWFWELLSEWSPEKKAKLLQFATGTSRLPLSGFKDMHGSDGPRKFTIEKVGHISQLPKAHTCANRLDIPPYNSKEELEQKLTIAIQETAGFGTE
Regarding B1, the E2~Ub(T)-to-E3^HECT pulse–chase transthiolation, fold loss of activity against wild type in experiment [1] and in experiment [2] was 30 fold throughout.
